Here are results for one molecule from patent US20220016257A1 (Daiichi Sankyo, published 2022).

The target of assay [1] is T1, human CDH6 (full-length, on cells) (human, UniProt P55285 54-790).
T1 construct: also called hCDH6; full-length hCDH6
T1 sequence: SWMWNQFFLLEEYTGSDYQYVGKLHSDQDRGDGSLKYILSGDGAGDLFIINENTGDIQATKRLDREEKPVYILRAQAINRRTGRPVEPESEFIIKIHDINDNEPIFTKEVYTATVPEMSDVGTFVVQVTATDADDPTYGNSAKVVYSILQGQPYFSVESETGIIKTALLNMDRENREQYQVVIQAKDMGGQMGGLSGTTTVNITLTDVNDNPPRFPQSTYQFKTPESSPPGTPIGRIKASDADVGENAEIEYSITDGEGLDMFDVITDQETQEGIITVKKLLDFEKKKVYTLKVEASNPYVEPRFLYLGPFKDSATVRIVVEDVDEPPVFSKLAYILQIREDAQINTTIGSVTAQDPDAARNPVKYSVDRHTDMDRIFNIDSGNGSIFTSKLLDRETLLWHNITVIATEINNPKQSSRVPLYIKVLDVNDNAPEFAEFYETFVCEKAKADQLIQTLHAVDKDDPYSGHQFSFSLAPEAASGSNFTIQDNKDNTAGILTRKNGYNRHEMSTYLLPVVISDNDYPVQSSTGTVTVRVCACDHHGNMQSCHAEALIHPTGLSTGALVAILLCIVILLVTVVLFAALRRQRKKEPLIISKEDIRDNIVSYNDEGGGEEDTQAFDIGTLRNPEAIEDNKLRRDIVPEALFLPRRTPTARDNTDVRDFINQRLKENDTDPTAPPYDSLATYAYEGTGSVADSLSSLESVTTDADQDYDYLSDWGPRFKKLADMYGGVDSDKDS
Briefly: competition flow cytometry on 786-O/hCDH6 cells, unlabeled antibody varied, competitor Alexa488-labeled NOV0712 at 5 nM [upper panel]. The procedure:
The cell suspension of the 786-O/hCDH6 stably expressing cell line produced in 6)-2-2-1 was centrifuged, and the supernatant was then removed. Thereafter, the cells were suspended by the addition of labeled NOV0712 or labeled H01L02 (final concentration: 5 nM) and, further, the addition of each of the 4 humanized hG019 antibodies (clone Nos: H01L02, H02L02, H02L03 and H04L02), which had been prepared in Example 5)-5-3, or the anti-CDH6 antibody NOV0712, which had been prepared in Reference Example 1, or human IgG1 (Calbiochem) as a negative control (final concentration: as shown in the abscissa of FIG. 7). The cells were left standing at 4° C. for 1 hour. Thereafter, the cells were washed twice with PBS supplemented with 5% FBS, followed by detection using a flow cytometer (Canto II; BD Biosciences). The data was analyzed using FlowJo (TreeStar, Inc.). The abscissa depicts the final concentration of the added unlabeled antibody, and the ordinate depicts the amount of the antibody bound based on mean fluorescence intensity. When unlabeled NOV0712 is added to cells supplemented with labeled NOV0712, the amount of the labeled antibody bound is decreased by replacement with the unlabeled antibody in an addition concentration-dependent manner because they compete with each other for binding to the same epitope. […]

The target in assay [2] is T2, EC5-deleted human CDH6 (EC5 deletion mutant, on cells) (human, UniProt P55285 54-790).
T2 construct: Full-length human CDH6 lacking EC5; Cloned in p3xFLAG-CMV-9; also called EC5-deleted hCDH6
T2 sequence: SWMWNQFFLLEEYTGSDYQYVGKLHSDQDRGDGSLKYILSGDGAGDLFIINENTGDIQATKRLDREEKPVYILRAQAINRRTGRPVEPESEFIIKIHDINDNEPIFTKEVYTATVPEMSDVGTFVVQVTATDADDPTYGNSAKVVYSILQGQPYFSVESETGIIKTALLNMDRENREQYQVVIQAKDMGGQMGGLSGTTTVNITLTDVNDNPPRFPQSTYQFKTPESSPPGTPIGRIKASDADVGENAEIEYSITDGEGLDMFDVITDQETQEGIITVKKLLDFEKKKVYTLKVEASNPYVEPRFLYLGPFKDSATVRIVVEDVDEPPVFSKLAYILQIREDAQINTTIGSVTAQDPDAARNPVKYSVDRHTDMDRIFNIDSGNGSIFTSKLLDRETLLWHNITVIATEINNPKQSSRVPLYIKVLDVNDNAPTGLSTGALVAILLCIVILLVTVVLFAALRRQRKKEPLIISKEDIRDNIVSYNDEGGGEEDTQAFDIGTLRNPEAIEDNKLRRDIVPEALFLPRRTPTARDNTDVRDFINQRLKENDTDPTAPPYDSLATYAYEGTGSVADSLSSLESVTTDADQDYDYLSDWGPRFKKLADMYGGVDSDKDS
The experiment in a line: flow cytometry, 293α cells transiently expressing EC5-deleted hCDH6 (open) against untransfected cells (shaded), APC anti-human IgG F(ab')2. On the procedure:
Thereafter, the cells were suspended by the addition of each of the 4 humanized hG019 antibodies (clone Nos: H01L02, H02L02, H02L03 and H04L02), which had been prepared in Example 5)-5-3, or the anti-CDH6 antibody NOV0712, which had been prepared in Reference Example 1, or human IgG1 (Calbiochem) as a negative control. The cells were left standing at 4° C. for 1 hour. The cells were washed twice with PBS supplemented with 5% FBS, and then suspended by the addition of APC-anti-human IgG goat F(ab′)2 (Jackson ImmunoResearch Laboratories, Inc.) that had been 500-fold diluted with PBS supplemented with 5% FBS. The cells were left standing at 4° C. for 1 hour. The cells were washed twice with PBS supplemented with 5% FBS, followed by detection using a flow cytometer (Canto II; BD Biosciences). The data was analyzed using FlowJo (TreeStar, Inc.). In the histograms of FIGS. 5-1 to 5-6, the abscissa depicts APC fluorescence intensity indicating the amount of the antibody bound, and the ordinate depicts cell count. […] Fluorescence intensity is enhanced when the antibody binds to full-length hCDH6 or each EC domain deletion mutant on the cell surface. The human IgG1 control binds to none of the transfected cells.

B1: anti-CDH6 antibody NOV0712 (antibody, V domains shown)
VH: QVQLLESGGGLVQPGGSLRLSCAASGFTFSSHGMHWVRQAPGKGLEWVSVISGSGSNTGYADSVKGRFTISRDNSKNTLYLQMNSLRAEDTAVYYCARQWGSYAFDSWGQGTLVTVSS
VL: DIQMTQSPSSLSASVGDRVTITCRASQSISSYLNWYQQKPGKAPKLLIYAVSTLQSGVPSRFSGSGSGTDFTLTISSLQPEDFATYYCQQSGTFPPTTFGQGTKVEIKR
With B1, the “IC50 (read off the curve)” value in assay [1] is around 4 nM. Further, the binding result in assay [2] is listed as “no binding (tested: not given)”.
